B1: KLHL12 (parent)
chain: REESLPNLLQYVRMPLLTPRYITD

Variants of: B1
Assay: protein stability index of a GFP-peptide fusion (GPS, HEK-293T) (PSI 1-6); higher = more stable
Details: c terminus: a fixed tail appended
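Note: lentivirally expressed fusions sorted by FACS into six bins by GFP to DsRed ratio, PSI derived from sequencing read proportions per bin multiplied by bin number.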

Variant	protein stability index
REESLPNLTQYVRMPLLTPRYITD	3.45
REESLPNLMQYVRMPLLTPRYITD	2.44
REESLPNLRQYVRMPLLTPRYITD	3.14
REESLPNLQQYVRMPLLTPRYITD	3.77
REESLPNLCQYVRMPLLTPRYITD	3.33
REESLPNLSQYVRMPLLTPRYITD	3.36
REESLPNLFQYVRMPLLTPRYITD	2.27
REESLPNLHQYVRMPLLTPRYITD	3.29
REESLPNLDQYVRMPLLTPRYITD	3.1
REESLPNLGQYVRMPLLTPRYITD	3.03
REESLPNLEQYVRMPLLTPRYITD	3.23
REESLPNLNQYVRMPLLTPRYITD	3.61
REESLPNLYQYVRMPLLTPRYITD	2.62
REESLPNLPQYVRMPLLTPRYITD	3.07
REESLPNLWQYVRMPLLTPRYITD	2.49
REESLPNLIQYVRMPLLTPRYITD	2.32
REESLPNLKQYVRMPLLTPRYITD	2.57
REESLPNLVQYVRMPLLTPRYITD	2.51
REESLPNYLQYVRMPLLTPRYITD	2.67
REESLPNQLQYVRMPLLTPRYITD	3.17
REESLPNGLQYVRMPLLTPRYITD	2.79
REESLPNVLQYVRMPLLTPRYITD	2.53
REESLPNDLQYVRMPLLTPRYITD	3.75
REESLPNSLQYVRMPLLTPRYITD	3.21

Variant	protein stability index
REESLPNCLQYVRMPLLTPRYITD	2.29
REESLPNHLQYVRMPLLTPRYITD	3.27
REESLPNMLQYVRMPLLTPRYITD	2.69
REESLPNILQYVRMPLLTPRYITD	2.41
REESLPNRLQYVRMPLLTPRYITD	2.98
REESLPNFLQYVRMPLLTPRYITD	2.4
REESLPNPLQYVRMPLLTPRYITD	3.18
REESLPNKLQYVRMPLLTPRYITD	2.98
REESLPNALQYVRMPLLTPRYITD	3.24
REESLPNTLQYVRMPLLTPRYITD	3.12
REESLPNELQYVRMPLLTPRYITD	3
REESLPNWLQYVRMPLLTPRYITD	2.12
REESLPNNLQYVRMPLLTPRYITD	3.22
REESLPILLQYVRMPLLTPRYITD	1.9
REESLPKLLQYVRMPLLTPRYITD	2.73
REESLPRLLQYVRMPLLTPRYITD	2.3
REESLPLLLQYVRMPLLTPRYITD	2.01
REESLPYLLQYVRMPLLTPRYITD	1.71
REESLPCLLQYVRMPLLTPRYITD	2.35
REESLPQLLQYVRMPLLTPRYITD	2.65
REESLPWLLQYVRMPLLTPRYITD	3.17
REESLPGLLQYVRMPLLTPRYITD	2.63
REESLPDLLQYVRMPLLTPRYITD	2.93
REESLPHLLQYVRMPLLTPRYITD	2.44

Variant	protein stability index
REESLPVLLQYVRMPLLTPRYITD	2.07
REESLPMLLQYVRMPLLTPRYITD	2.03
REESLPELLQYVRMPLLTPRYITD	2.34
REESLPTLLQYVRMPLLTPRYITD	2.1
REESLPSLLQYVRMPLLTPRYITD	2.26
REESLPPLLQYVRMPLLTPRYITD	3.19
REESLPFLLQYVRMPLLTPRYITD	2.23
REESLPNLLQYVRMPLATPRYITD	3.51
REESLPNLLQYVRMPLCTPRYITD	2.85
REESLPNLLQYVRMPKLTPRYITD	2.93
REESLPNLLQYVRMPRLTPRYITD	3.25
REESLPNLLQYVRMPPLTPRYITD	2.77
REESLPNLLQYVRMPYLTPRYITD	2.98
REESLPNLLQYVRMPFLTPRYITD	2.27
REESLPNLLQYVRMPNLTPRYITD	2.77
REESLPNLLQYVRMPHLTPRYITD	3.18
REESLPNLLQYVRMPTLTPRYITD	2.75
REESLPNLLQYVRMPGLTPRYITD	2.84
REESLPNLLQYVRMPDLTPRYITD	2.69
REESLPNLLQYVRMPMLTPRYITD	2.46
REESLPNLLQYVRMPQLTPRYITD	3.12
REESLPNLLQYVRMPVLTPRYITD	3.03
REESLPNLLQYVRMPSLTPRYITD	3.56
REESLPNLLQYVRMPILTPRYITD	2.45

Variant	protein stability index
REESLPNLLQYVRMPWLTPRYITD	1.6
REESLPNLLQYVRMPELTPRYITD	3.04
REESLPNLLQYVRMPCLTPRYITD	2.41
REESLPNLLQYVRMPALTPRYITD	2.56
REESLPNLLQYVRMSLLTPRYITD	3.06
REESLPNLLQYVRMTLLTPRYITD	2.65
REESLPNLLQYVRMLLLTPRYITD	4.9
REESLPNLLQYVRMGLLTPRYITD	3.67
REESLPNLLQYVRMHLLTPRYITD	2.65
REESLPNLLQYVRMKLLTPRYITD	1.57
REESLPNLLQYVRMWLLTPRYITD	2
REESLPNLLQYVRMMLLTPRYITD	2.48
REESLPNLLQYVRMILLTPRYITD	3.9
REESLPNLLQYVRMRLLTPRYITD	1.69
REESLPNLLQYVRMNLLTPRYITD	2.42
REESLPNLLQYVRMQLLTPRYITD	2.45
REESLPNLLQYVRMDLLTPRYITD	2.01
REESLPNLLQYVRMALLTPRYITD	1.58
REESLPNLLQYVRMYLLTPRYITD	4.19
REESLPNLLQYVRMVLLTPRYITD	2.34
REESLPNLLQYVRMFLLTPRYITD	2.24
REESLPNLLQYVRMELLTPRYITD	2.54

Reference: the supplement of paper PMC10567573
